Patent US6130078

Test system: NspHI restriction endonuclease (NspHIR) (Nostoc sp. (ATCC 29106))
Assay: cleavage_in_vitro
Details: cell extract dilutions 10^-1 to 10^-5 on lambda DNA

## bacteriophage lambda DNA
  activity (units per g wet cells): 186000
